Laboratory results taken from the supplement of paper PMC6757056.
± gives the standard deviation of the averaged measurements.

B1: library; a variant is named by its letters at N, in order (parent)
chain: GCUGUCACCGGUGUAUUACCCUAGUGGUCGACCGGUCUGAUGAGUCUNNNNNNAGACGAAACAGC

Key:
hypoxanthine [1] = variants of: B1; assay: FACS-Seq fitted mean relative fluorescence mCherry/BFP without ligand (log10 relative fluorescence); ligand: hypoxanthine (xanthine aptamer); higher = higher reporter protein expression; details: HEK293T, ligand present: no
How it was run: (§1)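 Fluorescence is reported as a normalized fitted mean of sorted-bin read counts. Lentivirally transduced HEK293T libraries (mCherry ribozyme-switch reporter, EF1α-BFP marker) were enriched, treated with or without ligand for 48 h, and sorted into 6 mCherry/BFP bins for MiSeq sequencing of PCR-amplified genomic DNA. The normal fit was on log10(mCherry/BFP), scaled to five spiked-in control ribozymes.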

hypoxanthine [2] = variants of: B1; assay: normalized RNA/DNA level with ligand (relative to sTRSVctl = 100) (log10 (% of sTRSVctl)); ligand: hypoxanthine (xanthine aptamer); higher = less ribozyme self-cleavage, higher mRNA level; details: ligand concentration (+) RNA-Seq: 5 mM, HEK293T, reporter: mCherry (pCS4076), ligand present: yes
How it was run: (§2)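 HEK293T cells received ligand, where used, 1 h before being transfected with 4 µg per 6-well well of library plasmids encoding reporter-linked ribozyme switches. After 72 h, RNA was extracted with EDTA and sequenced. RNA level was derived from RNA reads per DNA read, normalized to a spiked-in non-cleaving sequence or the top sequences, then scaled and log-transformed. Values were ×100 then log10, the top set was 25 sequences, and the minimum was 100 DNA reads.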

hypoxanthine [3] = variants of: B1; assay: normalized RNA/DNA level without ligand (relative to sTRSVctl = 100) (log10 (% of sTRSVctl)); ligand: hypoxanthine (xanthine aptamer); higher = less ribozyme self-cleavage, higher mRNA level; details: HEK293T, reporter: mCherry (pCS4076), ligand present: no
How it was run: as §2

hypoxanthine [4] = variants of: B1; assay: FACS-Seq fitted mean relative fluorescence mCherry/BFP with ligand (log10 relative fluorescence); ligand: hypoxanthine (xanthine aptamer); ligand concentration (+) FACS-Seq: 5 mM; higher = higher reporter protein expression; details: HEK293T, ligand present: yes
How it was run: as §1

Variant	FACS-Seq fitted mean (log10) (hypoxanthine [1])	normalized RNA/DNA level with ligand (log10) (hypoxanthine [2])	normalized RNA/DNA level without ligand (log10) (hypoxanthine [3])	FACS-Seq fitted mean (log10) (hypoxanthine [4])
UGGAAU	-0.0639 ± 0.013	1.887 ± 0.0035	1.659 ± 0.0056	0.205 ± 0.02
CGGACA	0.518 ± 0.098	1.9 ± 0.068	1.66 ± 0.037	0.612 ± 0.016
AGGACC	0.421 ± 0.0047	1.94 ± 0.042	1.88 ± 0.028	0.565 ± 0.034
GGGACG	0.352 ± 0.016	1.894 ± 0.014	1.51 ± 0.021	0.708 ± 0.031
UGGACG	0.639 ± 0.083	1.96 ± 0.082	1.68 ± 0.048	0.676 ± 0.22
AGGACG	0.233 ± 0.013	1.784 ± 0.01	1.37 ± 0.036	0.567 ± 0.0099
AGGACU	0.894 ± 0.099	1.94 ± 0.058	1.802 ± 0.0094	0.734 ± 0.031
GGGAGA	0.0269 ± 0.057	1.84 ± 0.02	1.429 ± 0.014	0.516 ± 0.024
UGGAGA	0.259 ± 0.025	1.791 ± 0.0083	1.33 ± 0.092	0.644 ± 0.0081
AGGAGA	0.176 ± 0.052	1.78 ± 0.049	1.28 ± 0.033	0.621 ± 0.034
GGGAGC	-0.04041 ± 0.0004	1.74 ± 0.068	1.16 ± 0.014	0.622 ± 0.026
UGGAGC	0.45 ± 0.088	1.959 ± 0.019	1.707 ± 0.01	0.69 ± 0.031
AGGAGC	0.421 ± 0.0061	1.883 ± 0.003	1.485 ± 0.0035	0.5478 ± 0.0022
CGGAGG	0.0652 ± 0.064	1.78 ± 0.12	1.28 ± 0.021	0.528 ± 0.0064
GGGAGG	0.0166 ± 0.058	1.76 ± 0.021	1.3 ± 0.03	0.374 ± 0.033
UGGAGG	0.223 ± 0.0051	1.73 ± 0.018	1.26 ± 0.072	0.592 ± 0.036
AGGAGG	0.0646 ± 0.011	1.584 ± 0.0034	1.186 ± 0.0034	0.626 ± 0.055
CGGAGU	0.289 ± 0.057	1.91 ± 0.024	1.78 ± 0.074	0.556 ± 0.041

Variant	FACS-Seq fitted mean (log10) (hypoxanthine [1])	normalized RNA/DNA level with ligand (log10) (hypoxanthine [2])	normalized RNA/DNA level without ligand (log10) (hypoxanthine [3])	FACS-Seq fitted mean (log10) (hypoxanthine [4])
GGGAGU	0.36 ± 0.0084	1.92 ± 0.047	1.63 ± 0.039	0.629 ± 0.011
UGGAGU	0.221 ± 0.061	1.78 ± 0.019	1.32 ± 0.051	0.602 ± 0.023
AGGAGU	0.142 ± 0.026	1.8 ± 0.024	1.37 ± 0.03	0.537 ± 0.073
AGGAUA	-0.536 ± 0.015	1.9 ± 0.027	1.677 ± 0.0074	-0.0798 ± 0.042
GGGAUG	0.0328 ± 0.0034	1.79 ± 0.043	1.323 ± 0.0058	0.564 ± 0.02
UGGAUG	0.4451 ± 0.0015	1.92 ± 0.025	1.659 ± 0.0063	0.341 ± 0.018
AGGAUG	0.132 ± 0.024	1.79 ± 0.042	1.25 ± 0.045	0.526 ± 0.06
CGGAUU	-0.13 ± 0.0099	1.94 ± 0.045	1.744 ± 0.0072	0.244 ± 0.014
GGGCAA	0.0453 ± 0.045	1.963 ± 0.0095	1.783 ± 0.013	0.266 ± 0.015
GGGCAG	0.0036 ± 0.061	1.881 ± 0.013	1.5894 ± 0.0015	0.434 ± 0.012
UGGCAG	0.155 ± 0.013	1.91 ± 0.045	1.69 ± 0.045	0.563 ± 0.052
AGGCAG	0.337 ± 0.023	1.82 ± 0.037	1.45 ± 0.0028	0.534 ± 0.015
CGGCAU	-0.119 ± 0.0088	1.9 ± 0.037	1.56 ± 0.1	0.0858 ± 0.0049
GGGCAU	-0.045 ± 0.015	1.933 ± 0.012	1.83 ± 0.075	0.103 ± 0.018
UGGCAU	0.353 ± 0.011	1.95 ± 0.06	1.755 ± 0.014	0.465 ± 0.046
AGGCAU	-0.0543 ± 0.062	1.92 ± 0.067	1.8 ± 0.047	0.027 ± 0.034
GGGCCA	0.693 ± 0.015	1.9809 ± 0.00094	1.99 ± 0.032	0.808 ± 0.082
AGGCCA	0.668 ± 0.014	1.96 ± 0.016	1.86 ± 0.023	0.607 ± 0.064
